In test [1] the target is T1, recombinant VEGFR-2 protein (water soluble extracellular site of human VEGFR-2 with Fc of human IgG1 … (human, UniProt P35968 20-764)).
T1 construct: extracellular domain; Bought; not shown: Fc of human IgG1
Description: competitive ELISA; synergibody titrated with 1 nM VEGFR-2 on coated VEGF 165. As for the experimental part:
Competitive ELISA is performed using the peptides synthesized above in Section 6A in order to assess the molecular interaction of the binders. […] Then the plate is washed five times with PBS containing 0.1% Tween-20, and blocked at room temperature for two hours with PBS containing 5% BSA. For VEGF:VEGFR-2 neutralization ELISA, each of the peptides synthesized in Section 6A above are diluted to one-fourth each time from 100 nM with PBS containing 1 nM VEGFR-2 and 1% BSA, and adjusted to 6.1 pM. 100 μl of peptide/VEGFR-2 solution is added to each well and the plate is left to react at room temperature for two hours. Subsequently, it is washed five times with PBS containing 0.1% Tween-20, mouse anti-VEGFR-2 antibodies (R&D Systems) is diluted to about 1:3,000 with PBS containing 1% BSA, and left to react at room temperature for one hour. Then 100 μl of goat anti-mouse-IgG-HRP (Pierce) diluted to about 1:10,000 with PBS containing 1% BSA is added to each well of the plate, left to react at room temperature for one hour, and washed five times with PBS containing 0.1% Tween-20. Lastly, 100 μl of TMB substrate (SIGMA) is added to each well of the plate to induce color reaction. The reaction is stopped by adding 50 μl of 5N H₂SO₄ solution, and the OD₄₅₀ value is read on a plate reader (Molecular Devices). Through the foregoing, the IC₅₀ value for the VEGF:VEGFR-2 binding capacity is obtained.
The method in Example 2, Section 6B above is used, except that, in the present example, each fused protein synergibodies are diluted from 100 nM to one-fourth each time with PBS containing 1% BSA and 1nM VEGFR-2 and adjusted to 6.1 pM for VEGF:VEGF-2 neutralization ELISA.

The target of test [2] is T2, recombinant hAng-2 (recombinant protein with His tag attached to human Ang-2; R&D Systems) (human, UniProt O15123 19-496).
T2 construct: also called angiopoietin-2; ANGPT2
T2 sequence (looked up): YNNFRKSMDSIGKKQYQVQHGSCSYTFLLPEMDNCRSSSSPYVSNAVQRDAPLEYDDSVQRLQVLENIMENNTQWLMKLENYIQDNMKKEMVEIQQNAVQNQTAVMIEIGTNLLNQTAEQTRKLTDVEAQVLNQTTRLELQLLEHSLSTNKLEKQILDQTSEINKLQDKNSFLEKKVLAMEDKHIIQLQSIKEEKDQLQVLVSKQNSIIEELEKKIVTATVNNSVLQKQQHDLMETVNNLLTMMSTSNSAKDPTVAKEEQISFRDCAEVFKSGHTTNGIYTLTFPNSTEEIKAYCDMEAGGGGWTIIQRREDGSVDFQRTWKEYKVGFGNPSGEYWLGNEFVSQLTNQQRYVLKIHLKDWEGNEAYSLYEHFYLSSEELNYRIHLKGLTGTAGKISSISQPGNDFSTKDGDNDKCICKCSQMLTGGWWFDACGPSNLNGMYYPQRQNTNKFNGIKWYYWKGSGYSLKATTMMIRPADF
Description: competitive ELISA; synergibody titrated with 1 nM hAng-2 (His) on coated hTie2-Fc. As to the method: A competitive ELISA is performed to assess the molecular interaction of the binders. A 96-well MaxiSorp™ flat-bottom plate (Nunc) is coated with hTie2-Fc (R&D Systems), which is a fused protein including the water-soluble extracellular portion of human Tie-2 and Fc of human IgG₁ dissolved in DMEM culture solution containing 50 μg/ml bovine serum albumin (BSA). The concentration of hTie2-Fc used as a coating material is equivalent to 75% of its maximum binding concentration with 1 nM of recombinant hAng-2 (recombinant protein with His tag attached to human Ang-2; R&D Systems). Then the plate is washed five times with Phosphate Buffer Saline (PBS) containing 0.1% Tween-20 and blocked at room temperature for two hours with PBS containing 5% BSA. Each anti-Ang-2 antibodies are diluted from 100 nM by one-fourth each time with PBS containing 1% BSA and 1 nM hAng-2 and adjusted to 6.1 pM for Ang-2:Tie-2 neutralization ELISA. 100 μl of antibody/hAng-2 solutions are placed in each corresponding well and left to react at room temperature for two hours. Then the wells are washed five times with PBS containing 0.1% Tween-20, and the anti-His antibodies (GE Healthcare) are diluted to about 1:3,000 with PBS containing 1% BSA and left to react at room temperature for one hour. Afterwards, 100 μl of goat anti-mouse-IgG-HRP (Pierce) diluted with PBS containing 1% BSA to about 1:10,000 is added to each well of the plate, left to react at room temperature for one hour, and washed with PBS containing 0.1% Tween-20 five times. Lastly, 100 μl of TMB substrate (SIGMA) is added to each well of the plate to induce color reaction, and the reaction is stopped by adding 50 μl of 5N H₂SO₄ solution. The OD₄₅₀ value is read on a plate reader (Molecular Devices).
The method described in Example 1, Section 3 above is used, except that, in the present example, each fused protein synergibodies are diluted from 100 nM to one-fourth each time with PBS containing 1% BSA and 1 nM hAng-2 and adjusted to 6.1 pM for Ang-2:Tie-2 neutralization ELISA.

T1 sequence (P35968 20-764): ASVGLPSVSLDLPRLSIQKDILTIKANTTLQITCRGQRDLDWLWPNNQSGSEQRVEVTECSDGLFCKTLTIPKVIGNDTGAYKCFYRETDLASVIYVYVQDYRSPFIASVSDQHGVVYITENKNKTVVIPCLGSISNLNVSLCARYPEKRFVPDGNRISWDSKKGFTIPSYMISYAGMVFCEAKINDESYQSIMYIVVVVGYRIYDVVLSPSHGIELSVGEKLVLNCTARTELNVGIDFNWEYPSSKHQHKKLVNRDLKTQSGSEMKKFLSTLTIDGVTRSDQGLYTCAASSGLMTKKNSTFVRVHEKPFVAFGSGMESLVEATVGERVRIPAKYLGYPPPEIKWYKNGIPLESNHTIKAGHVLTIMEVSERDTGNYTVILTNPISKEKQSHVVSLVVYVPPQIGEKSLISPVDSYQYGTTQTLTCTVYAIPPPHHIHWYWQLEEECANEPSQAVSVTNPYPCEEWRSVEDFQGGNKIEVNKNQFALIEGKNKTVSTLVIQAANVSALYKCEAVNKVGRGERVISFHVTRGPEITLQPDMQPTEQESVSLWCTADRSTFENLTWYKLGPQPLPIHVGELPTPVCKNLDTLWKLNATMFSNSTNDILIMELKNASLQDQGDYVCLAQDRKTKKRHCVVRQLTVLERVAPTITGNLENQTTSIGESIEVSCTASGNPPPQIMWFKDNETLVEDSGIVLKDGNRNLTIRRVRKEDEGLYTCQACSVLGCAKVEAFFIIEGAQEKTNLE

B1: Syn-Ang-VEGFR-20 (other)
heavy (part 1 of 2): QVQLQQSGAELARPGASVKLSCKASGYTFTDYYINWAKQRTGQGLEWIGEIYPGSGDTYYNEKFKGKATLTADKSSSTAYMQLSSLTSEDSAVYFCARYGYKGVYFDYWGQSTTLTVSS
heavy (part 2 of 2): PGSQGYCHLNMRYQWICDSE
light: ENVLTQSPAIMAASLGQKVTMTCSASSSVSSSYLHWYQQKSGASPKPLIHRTSNLASGVPARFSGSGSGTSYSLTISSVEAEDDATYYCQQWSGYPFTFGAGTKLELK
notes: Chimeric (human IgG1) SAITAng-2-4 with the peptide at the C-terminus of the heavy chain; also called SAITAng-2-4 x DTN11VEGFR-2-5; not shown: human IgG1 heavy chain constant region with Fc region, from the vector; human light chain constant region, printed as 'constant region of human IgG1'
Take B1: the IC50 in test [1] amounted to 1.38 nM; in test [2] it was 1.35 nM.

B2: Syn-Ang-VEGFR-19 (other)
heavy (part 1 of 2): B1 heavy (part 1 of 2)
heavy (part 2 of 2): TGSGRMCDGSGPPTNCWFT
light: B1 light
notes: Chimeric (human IgG1) SAITAng-2-4 with the peptide at the C-terminus of the heavy chain; also called SAITAng-2-4 x DTN10VEGFR-2-4; not shown: human IgG1 heavy chain constant region with Fc region, from the vector; human light chain constant region, printed as 'constant region of human IgG1'
Take B2: the IC50 in test [1] is 1.31 nM; in test [2], 1.28 nM.

B3: Syn-Ang-VEGFR-18 (other)
heavy (part 1 of 2): B1 heavy (part 1 of 2)
heavy (part 2 of 2): EAGAYWCKAWGLSPCLVT
light: B1 light
notes: Chimeric (human IgG1) SAITAng-2-4 with the peptide at the C-terminus of the heavy chain; also called SAITAng-2-4 x DTN9VEGFR-2-3; not shown: human IgG1 heavy chain constant region with Fc region, from the vector; human light chain constant region, printed as 'constant region of human IgG1'
With B3, the IC50 in test [1] was determined as 1.65 nM; in test [2] it was 1.39 nM.

B4: Syn-Ang-VEGFR-11 (other)
heavy (part 1 of 2): DVQLVESGGGLVQPGGSRKLSCAASGFTFSSFGMHWVRQAPEKGLEWVAYISSDSSTIYYADTVKGRFTISRDNPKNTLFLQMTSLRSEDTAMYYCAREGGYDDYYAMDYWGQGTSVTVSS
heavy (part 2 of 2): TGSDDLCYTFPCMHY
light: DIQMTQSPASQSASLGESVTITCLASQTIGTWLAWYQQKPGKSPQLLIYAATSLADGVPSRFSGSGSGTKFSFKISSLQAEDFVSYYCQQLYSIPLTFGGGTKLEIK
notes: Chimeric (human IgG1) SAITAng-2-3 with the peptide at the C-terminus of the heavy chain; also called SAITAng-2-3 x DTN6VEGFR-2-1; not shown: human IgG1 heavy chain constant region with Fc region, from the vector; human light chain constant region, printed as 'constant region of human IgG1'
On to B4, for which the IC50 worked out at 0.872 nM in test [1] and 0.858 nM in test [2].

B5: Syn-Ang-VEGFR-14 (other)
heavy (part 1 of 2): B4 heavy (part 1 of 2)
heavy (part 2 of 2): TGSGRMCDGSGPPTNCWFT
light: B4 light
notes: Chimeric (human IgG1) SAITAng-2-3 with the peptide at the C-terminus of the heavy chain; also called SAITAng-2-3 x DTN10VEGFR-2-4; not shown: human IgG1 heavy chain constant region with Fc region, from the vector; human light chain constant region, printed as 'constant region of human IgG1'
Regarding B5, the IC50 in test [1] came to 0.889 nM; in test [2], 0.887 nM.

B6: Syn-Ang-VEGFR-13 (other)
heavy (part 1 of 2): B4 heavy (part 1 of 2)
heavy (part 2 of 2): EAGAYWCKAWGLSPCLVT
light: B4 light
notes: Chimeric (human IgG1) SAITAng-2-3 with the peptide at the C-terminus of the heavy chain; also called SAITAng-2-3 x DTN9VEGFR-2-3; not shown: human IgG1 heavy chain constant region with Fc region, from the vector; human light chain constant region, printed as 'constant region of human IgG1'
As for B6, the IC50 in test [1] was determined as 0.914 nM; in test [2] it was 0.903 nM.

B7: Syn-Ang-VEGFR-12 (other)
heavy (part 1 of 2): B4 heavy (part 1 of 2)
heavy (part 2 of 2): EAGKETCGYEWQYCPRP
light: B4 light
notes: Chimeric (human IgG1) SAITAng-2-3 with the peptide at the C-terminus of the heavy chain; also called SAITAng-2-3 x DTN8VEGFR-2-2; not shown: human IgG1 heavy chain constant region with Fc region, from the vector; human light chain constant region, printed as 'constant region of human IgG1'
Consider B7, for which the values for the IC50 in test [1] and in test [2] were 0.854 nM and 0.833 nM, respectively.

B8: Syn-Ang-VEGFR-15 (other)
heavy (part 1 of 2): B4 heavy (part 1 of 2)
heavy (part 2 of 2): PGSQGYCHLNMRYQWICDSE
light: B4 light
notes: Chimeric (human IgG1) SAITAng-2-3 with the peptide at the C-terminus of the heavy chain; also called SAITAng-2-3 x DTN11VEGFR-2-5; not shown: human IgG1 heavy chain constant region with Fc region, from the vector; human light chain constant region, printed as 'constant region of human IgG1'
As for B8, the IC50 in test [1] is 1.05 nM; in test [2] it was 0.925 nM.

The values above are taken from patent US20110076723A1, “ANTIBODY-PEPTIDE FUSED SYNERGIBODY” (SAMSUNG ELECTRONICS CO., LTD., priority 2008, published 2011).
